These are literature values, as cited in article PMC4245495.

The data set deals with Uroplakin Ia (UniProt O00322).

pKd: −log10 of the molar value.

Sequence of UniProt O00322 (O00322 whole entry): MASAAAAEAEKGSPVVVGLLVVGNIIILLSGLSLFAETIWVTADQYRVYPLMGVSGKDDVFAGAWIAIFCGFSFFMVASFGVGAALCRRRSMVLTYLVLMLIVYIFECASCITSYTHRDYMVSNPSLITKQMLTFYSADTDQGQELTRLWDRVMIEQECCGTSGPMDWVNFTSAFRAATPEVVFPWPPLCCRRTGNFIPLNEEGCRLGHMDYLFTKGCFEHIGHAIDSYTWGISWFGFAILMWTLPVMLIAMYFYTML

In the case of FimH (from UniProt P08191), the pKd is 7.00.
